Reference: patent US20230416362A1 (INDUSTRIAL TECHNOLOGY RESEARCH INSTITUTE, published 2023)
Numbering of substitutions follows the chain as printed. Values belong to the binder of their own block, whether it stands above or below them.

Legend:
[1] = biological target: T1, human TIGIT IgV domain Y106A (human, UniProt Q495A1 22-141, limits assumed); assay: ELISA on TIGIT IgV point mutants
T1 construct: Made in Expi293F cells, purified on Strep-Tactin XT; Limits of the IgV domain not readable, whole entry named; also called Y106 single alanine substitution mutant
T1 chain: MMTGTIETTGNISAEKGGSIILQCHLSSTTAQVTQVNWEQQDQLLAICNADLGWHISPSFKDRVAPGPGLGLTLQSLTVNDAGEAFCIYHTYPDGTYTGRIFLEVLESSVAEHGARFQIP
Procedure: (§1) To further identify the amino acid residues of TIGIT that interact with the recombinant 7D4 mIgG2a antibody, single alanine substitution mutants were generated in the human TIGIT IgV domain by site-directed mutagenesis using standard molecular techniques. ELISA binding assays were then performed to assess 7D4 binding strength.
(§2) To identify the amino acid residues of TIGIT that interact with the humanized 7D4 variant, 1A11 (in human IgG1-DLE isotype), ELISA binding assays with the single alanine substitution mutants were performed to assess 1A11 binding strength. […] Similar to the parental mouse 7D4 antibody, Q56 and Y106 single alanine substitution mutants completely abolished the binding of 1A11.

[2] = biological target: T2, human TIGIT IgV domain G74A (human, UniProt Q495A1 22-141, limits assumed); assay: ELISA on TIGIT IgV point mutants
T2 construct: Made in Expi293F cells, purified on Strep-Tactin XT; Limits of the IgV domain not readable, whole entry named; also called G74 single alanine substitution mutant
T2 chain: T1 chain with G53A, A85Y
Procedure: as §1, §2

[3] = biological target: T3, human TIGIT IgV domain Q56A (human, UniProt Q495A1 22-141, limits assumed); assay: ELISA on TIGIT IgV point mutants
T3 construct: Made in Expi293F cells, purified on Strep-Tactin XT; Limits of the IgV domain not readable, whole entry named; also called Q56 single alanine substitution mutant
T3 chain: T1 chain with Q35A, A85Y
Procedure: as §1, §2

[4] = biological target: T4, human TIGIT IgV domain H111 single alanine substitution mutant (human, UniProt Q495A1 22-141, limits assumed); assay: ELISA on TIGIT IgV point mutants
T4 construct: Printed as "H111" in the list of mutants; the text calls it a single alanine substitution mutant; Limits of the IgV domain not readable, whole entry named; also called H111A
T4 chain: T1 chain with A85Y, H90A
Procedure: as §1, §2

[5] = biological target: T5, human TIGIT IgV domain Y110A (human, UniProt Q495A1 22-141, limits assumed); assay: ELISA on TIGIT IgV point mutants
T5 construct: Made in Expi293F cells, purified on Strep-Tactin XT; Limits of the IgV domain not readable, whole entry named; also called Y110 single alanine substitution mutant
T5 chain: T1 chain with A85Y, Y89A
Procedure: as §1, §2

[6] = biological target: T6, human TIGIT expressed on cells (TIGIT/Jurkat cells; MJ[G11] cells; PBMC T cells) (human, UniProt Q495A1 22-244); assay: flow cytometry on TIGIT/Jurkat cells
T6 construct: The cell line is named under assay; also called human TIGIT-expressing Jurkat cells
T6 sequence: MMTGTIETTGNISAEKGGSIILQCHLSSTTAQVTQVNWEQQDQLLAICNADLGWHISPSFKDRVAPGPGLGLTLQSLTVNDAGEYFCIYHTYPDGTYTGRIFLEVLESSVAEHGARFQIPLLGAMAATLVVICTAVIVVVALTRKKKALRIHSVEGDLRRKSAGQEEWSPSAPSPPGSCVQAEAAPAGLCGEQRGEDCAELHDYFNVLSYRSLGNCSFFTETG
Procedure: Sequential dilutions of Protein A column-purified 7D4, 2C9, and 3A9 antibodies were separately incubated with 5×10⁵ of human TIGIT-expressing Jurkat cells (TIGIT/Jurkat) in 50 μl of FACS buffer (0.2% BSA in Dulbecco's phosphate-buffered saline (DPBS) containing 0.09% sodium azide) on ice for 1 hour. After washing, the cells were stained with anti-mouse IgG conjugated with PE dyes and antibody binding strength was analyzed by flow cytometry.

[7] = biological target: T7, TIGIT-biotin (TIGIT:CD155 Homogeneous Assay Kit, #72029) (human, UniProt Q495A1 22-141, limits assumed, biotin (site not stated)); assay: AlphaLISA competition: TIGIT-biotin with antibody, then histidine-tagged CD155 as competitor
T7 construct: Kit reagent; also called human TIGIT
T7 chain: T1 chain with A85Y
Procedure: To evaluate inhibition of binding of TIGIT to CD155 by anti-TIGIT antibodies, AlphaLISA assays were performed using a TIGIT:CD155 Homogeneous Assay Kit (PBS Biosciences, #72029). Aliquots (6 μl) of solution containing TIGIT-biotin (final concentration 0.2 ng/μl) and 4-fold serial dilution of the test antibodies (final volume 2 μl) were added into a 384-well plate. The plates were covered with a lid and incubated at room temperature for 30 min. Then, 2 μl of histidine-tagged CD155 were added (final concentration 0.05 ng/μl) into each well and incubated at room temperature for 60 min. Finally, aliquots (5 μl) of streptavidin-conjugated donor beads (final concentration 10 μg/ml) and 5 μl of anti-His tag acceptor beads (final concentration 20 μg/ml) were added and the plate was incubated at room temperature for 30 min in the dark. AlphaLISA signals were measured on an EnSpire Alpha 2390 (Perkin-Elmer Life Sciences). 15A6 (U.S. Pat. No. 10,189,902) and MBSA43 (Thermo Fisher Scientific, #16-9500-82) were used as reference antibodies.
These antibodies were selected for further functional studies.

[8] = biological target: T8, recombinant mouse TIGIT IgV domain (mouse, UniProt P86176 29-145); assay: ELISA on coated recombinant TIGIT IgV domain
T8 construct: Made in NS0 cells, purified on Strep-Tactin XT; Biotinylated for phage panning; also called biotinylated mouse TIGIT IgV domain
T8 sequence: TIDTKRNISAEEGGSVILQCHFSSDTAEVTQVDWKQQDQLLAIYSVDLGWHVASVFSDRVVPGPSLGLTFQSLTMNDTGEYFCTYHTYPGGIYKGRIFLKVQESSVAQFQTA
Procedure: To assess species cross-reactivity of anti-TIGIT antibodies 7D4, 2C9, and 3A9, ELISA binding assays to human, cynomolgus monkey, and mouse TIGIT were performed. 1 μg/ml each of human, cyno (R&D Systems, Inc., #9380-TG), and mouse TIGIT in 50 μl of DPBS were coated on 96-well plates at 4° C. for overnight. After washing the plates with phosphate-buffered saline containing 0.05% of Tween 20 (PBST), a sequential dilution of 7D4, 2C9, and 3A9 antibodies was added separately and the plates were incubated at 37° C. for 1 hour. After washing the plates three times with PBST, the plates were incubated with an anti-mouse Fey polyclonal antibody conjugated with horseradish peroxidase (HRP) at 37° C. for 1 hour. After washing the plates three times with PBST, 100 μl of 3,3′,5,5′-tetra-methylbenzidine (TMB) substrate (Thermo Fisher Scientific, #34018) were added into each well. After 5 to 10 min of color development, 50 μl of stop solution (2 N of HCl) were added into each well and plates were read by spectrophotometer at a wavelength of 450 nm.

binding result [1]: no binding
reduction in binding against the wild type [2]: > 40%
binding result [3]: no binding
reduction in binding against the wild type [4]: > 40%
reduction in binding against the wild type [5]: > 40%
B1: 1A11 hIgG1-DLE (antibody, V domains shown)
VH: EVQLVQSGGGLVKPGGSLRLSCAASGYTFTNYWIGWVRQTPGKGLEWVGDIYPGSSFTNSNEKFKGRFTISADKSKNTAYLQMNSLRAEDTAVYYCARLGRGYWYFDVWGQGTLVTVSS
VL: DIVLTQSPATLSASLGERATLSCSASSSVSYIHWYQQKPGQAPKLLIYTTSNLASGVPSRFSGSGSGTDFTLTISSLEAEDFATYYCQLFRSGSAFGGGTKLEIKR
notes: Human IgG1 with DLE mutations at the Fc region, expressed in CHO-S cells; also called humanized 7D4 variant 1A11 (in human IgG1-DLE isotype)

binding result [1]: no binding
reduction in binding against the wild type [2]: 50%
binding result [3]: no binding
reduction in binding against the wild type [4]: > 50%
reduction in binding against the wild type [5]: > 50%
B4: recombinant 7D4 mIgG2a antibody (antibody, V domains shown)
VH: QVQLKHSGAELVRPGTSVKMSCKASGYTFTNYWIGWAKQRPGHGLEWIGDIYPGSSFTNSNEKFKGKATLTADKSSSTAYMQFSSLTSEDSAIYYCAKLGRGYWYFDVWGTGTSVTVSA
VL: DIVLTQSPAIMSASLGEEITLTCSASSSVSYIHWYQQKSGTSPKLLIYTTSNLASGVPSRFSGSGSGTFYSLTISSVEAEDAADYYCHQWSRYPTFGGGTKLEIK
notes: Recombinant form with mouse IgG2a constant region (vector pFUSEss-CHIg-mG2a); also called recombinant 7D4 antibody (in mouse IgG2a isotype)

Continued, binder first:

B2: 3A9 (antibody, V domains shown)
VH: QVQLQQPGAELVRPGSSVKLSCKASGYTFTSYWMHWVKQRPIQGLEWIGNIDPSDSATHYNQKFKDKATLTVDKSSSTAYMHLSSLTSEDSAVYYCARTGIDYGSSYFDYWGQGTILTVSS
VL: DIVLTQSPASLAVSLGQRATISCRASQSVSTSSYSYIHWYQQKPGQPPKLLIKYASNLESGVPARFSGSGSGTDFTLNIHPVEEEDTATYYCQHNWEIPRTFGGGTKLEIK
notes: Mouse monoclonal antibody from hybridoma clone 3A9, Protein A purified; also called anti-TIGIT monoclonal antibody 3A9
Kd [6]: 1.86 nM
IC50 [7]: 0.55 nM

B3: 7D4 (antibody, V domains shown)
VH: B4 VH
VL: B4 VL
notes: Mouse monoclonal antibody from hybridoma clone 7D4, Protein A purified; also called anti-TIGIT monoclonal antibody 7D4; parental mouse 7D4 antibody
Kd [6]: 0.27 nM
EC50 [8]: 10.5 nM
IC50 [7]: 0.32 nM

B5: 2C9 (antibody, V domains shown)
VH: DIQLKQSGAELVRPGASVKLSCKASGYTFTDSYINWVKQRPGQGLEWIARFYPGSGNTYYNEKFKGKATLTAEKSSSTAYMQLSSLTSEDSAVYFCAREAWLLFYGMDYWGQGTTVTVSS
VL: DIVLTQSPAIMSASPGEKVTISCSANSSVSYMYWYQQKPGSSPKPWIYRTSNLASGVPARFSGSGSGTSYSLTISSMEAEDAATYYCQQYHSYPLTFGAGTKLELK
notes: Mouse monoclonal antibody from hybridoma clone 2C9, Protein A purified; also called anti-TIGIT monoclonal antibody 2C9
Kd [6]: 2 nM
IC50 [7]: 0.4 nM
